# Measured values as given in the Immune Epitope Database (IEDB).
# Legend:
# HLA-B*08:01 [1] = test: IEDB peptide-MHC binding, purified MHC/competitive/fluorescence; filed as Kd, often an IC50 or EC50 that approximates it; ≥ and ≤ were set here for values at or beyond the usual limits of such assays; settings: source organism: Human immunodeficiency virus 1
# HLA-A*30:01 = test: as above; settings: source organism: Human immunodeficiency virus 1
# HLA-B*38:01 [2] = test: as above; settings: source organism: Human immunodeficiency virus 1
# HLA-B*15:01 [3] = test: as above
# HLA-A*01:01 [4] = test: as above; settings: source organism: Human immunodeficiency virus 1
# HLA-B*15:09 [5] = test: as above
# HLA-B*15:17 [6] = test: as above; settings: source organism: Human immunodeficiency virus 1
# HLA-B*39:01 = test: as above
# HLA-A*26:01 [7] = test: as above; settings: source organism: Cryptosporidium parvum Iowa II
# HLA-B*51:01 = test: as above; settings: source organism: Cryptosporidium parvum Iowa II
# HLA-B*46:01 [8] = test: as above; settings: source organism: Cryptosporidium parvum Iowa II
# HLA-B*27:03 = test: as above; settings: source organism: Cryptosporidium parvum Iowa II
# HLA-B*18:01 = test: as above; settings: source organism: Cryptosporidium parvum Iowa II
# HLA-B*57:01 [9] = test: as above; settings: source organism: Cryptosporidium parvum Iowa II
# HLA-A*80:01 = test: as above; settings: source organism: Cryptosporidium parvum Iowa II
# HLA-A*29:02 = test: as above; settings: source organism: Cryptosporidium parvum Iowa II
# HLA-B*08:01 [10] = test: IEDB peptide-MHC binding, purified MHC/direct/fluorescence; filed as Kd, often an IC50 or EC50 that approximates it; ≥ and ≤ were set here for values at or beyond the usual limits of such assays
# HLA-A*26:03 = test: as above; settings: source organism: Orthomarburgvirus marburgense
# HLA-B*15:01 [11] = test: as above
# HLA-A*01:01 [12] = test: as above
# HLA-B*07:02 = test: as above; settings: source organism: Marburg virus - Musoke, Kenya, 1980
# HLA-A*68:02 = test: as above; settings: source organism: Marburg virus - Musoke, Kenya, 1980
# HLA-B*48:01 = test: as above
# HLA-A*69:01 = test: as above
# HLA-B*46:01 [13] = test: as above
# HLA-A*31:01 = test: as above
# HLA-B*15:17 [14] = test: as above
# HLA-B*57:01 [15] = test: as above
# HLA-A*11:01 [16] = test: as above; settings: source organism: Marburg virus - Musoke, Kenya, 1980
# HLA-A*02:01 = test: as above
# HLA-B*27:05 = test: as above
# HLA-B*58:01 = test: as above
# HLA-A*26:02 = test: IEDB peptide-MHC binding, purified MHC/competitive/fluorescence; filed as Kd, often an IC50 or EC50 that approximates it; ≥ and ≤ were set here for values at or beyond the usual limits of such assays; settings: source organism: Orthomarburgvirus marburgense
# HLA-B*35:01 = test: as above; settings: source organism: Orthomarburgvirus marburgense
# HLA-A*03:01 = test: IEDB peptide-MHC binding, purified MHC/direct/fluorescence; filed as Kd, often an IC50 or EC50 that approximates it; ≥ and ≤ were set here for values at or beyond the usual limits of such assays; settings: source organism: Rickettsia canadensis
# HLA-B*38:01 [17] = test: as above; settings: source organism: Candidatus Rickettsia tarasevichiae
# HLA-B*15:09 [18] = test: as above; settings: source organism: Candidatus Rickettsia tarasevichiae
# HLA-A*26:01 [19] = test: as above; settings: source organism: Candidatus Rickettsia tarasevichiae
# HLA-B*40:01 = test: as above; settings: source organism: Rickettsia canadensis
# HLA-A*11:01 [20] = test: IEDB peptide-MHC binding, purified MHC/competitive/fluorescence; filed as Kd, often an IC50 or EC50 that approximates it; ≥ and ≤ were set here for values at or beyond the usual limits of such assays; settings: source organism: Rickettsia canadensis
# [21] = source organism: Human immunodeficiency virus 1
# [22] = source organism: Cryptosporidium parvum Iowa II
# [23] = source organism: Orthomarburgvirus marburgense
# [24] = source organism: Marburg virus - Musoke, Kenya, 1980
# [25] = source organism: Rickettsia canadensis
sequence,measurement,setting,value
GSEEIKSLF,Kd,HLA-B*08:01 [1],≥ 20 µM
same,Kd,HLA-A*30:01,≥ 20 µM
same,Kd,HLA-B*38:01 [2],≥ 20 µM
same,Kd,HLA-B*15:01 [3]; [21],≥ 20 µM
same,Kd,HLA-A*01:01 [4],≥ 20 µM
same,Kd,HLA-B*15:09 [5]; [21],≥ 20 µM
same,Kd,HLA-B*15:17 [6],0.182 µM
KLGDITLFL,Kd,HLA-B*39:01; [22],≥ 20 µM
same,Kd,HLA-B*15:01 [3]; [22],≥ 20 µM
same,Kd,HLA-A*26:01 [7],≥ 20 µM
same,Kd,HLA-B*51:01,≥ 20 µM
same,Kd,HLA-B*46:01 [8],≥ 20 µM
same,Kd,HLA-B*27:03,≥ 20 µM
same,Kd,HLA-B*18:01,≥ 20 µM
same,Kd,HLA-B*57:01 [9],≥ 20 µM
same,Kd,HLA-A*80:01,0.0156 µM
same,Kd,HLA-A*29:02,0.0341 µM
NQECWDSVF,Kd,HLA-B*08:01 [10]; [23],≥ 20 µM
same,Kd,HLA-A*26:03,≥ 20 µM
same,Kd,HLA-B*15:01 [11]; [24],0.373 µM
same,Kd,HLA-A*01:01 [12]; [24],≥ 20 µM
same,Kd,HLA-B*07:02,≥ 20 µM
same,Kd,HLA-A*68:02,≥ 20 µM
same,Kd,HLA-B*48:01; [24],≥ 20 µM
same,Kd,HLA-A*69:01; [24],≥ 20 µM
same,Kd,HLA-B*46:01 [13]; [24],≥ 20 µM
same,Kd,HLA-A*31:01; [24],≥ 20 µM
same,Kd,HLA-B*15:17 [14]; [24],≥ 20 µM
same,Kd,HLA-B*57:01 [15]; [24],≥ 20 µM
same,Kd,HLA-A*11:01 [16],≥ 20 µM
same,Kd,HLA-A*02:01; [24],≥ 20 µM
same,Kd,HLA-B*27:05; [24],≥ 20 µM
same,Kd,HLA-B*58:01; [24],≥ 20 µM
same,Kd,HLA-B*39:01; [23],0.364 µM
same,Kd,HLA-A*26:02,0.384 µM
same,Kd,HLA-B*15:09 [5]; [23],2.52 µM
same,Kd,HLA-B*35:01,0.216 µM
SSEADCFTY,Kd,HLA-A*03:01,≥ 20 µM
same,Kd,HLA-B*08:01 [10]; source organism: Candidatus Rickettsia tarasevichiae,≥ 20 µM
same,Kd,HLA-B*38:01 [17],≥ 20 µM
same,Kd,HLA-B*15:01 [11]; [25],≥ 20 µM
same,Kd,HLA-A*01:01 [12]; [25],0.0553 µM
same,Kd,HLA-B*15:09 [18],≥ 20 µM
same,Kd,HLA-A*26:01 [19],≥ 20 µM
same,Kd,HLA-B*48:01; [25],≥ 20 µM
same,Kd,HLA-A*69:01; [25],≥ 20 µM
same,Kd,HLA-B*46:01 [13]; [25],≥ 20 µM
same,Kd,HLA-A*31:01; [25],≥ 20 µM
same,Kd,HLA-B*15:17 [14]; [25],0.0816 µM
same,Kd,HLA-B*57:01 [15]; [25],≥ 20 µM
same,Kd,HLA-A*02:01; [25],≥ 20 µM
same,Kd,HLA-B*40:01,≥ 20 µM
same,Kd,HLA-B*27:05; [25],≥ 20 µM
same,Kd,HLA-B*58:01; [25],≥ 20 µM
same,Kd,HLA-A*11:01 [20],≥ 20 µM
